# Results taken from article PMC4450493, “Binding of undamaged double stranded DNA to vaccinia virus uracil-DNA Glycosylase”.
# B1: self-complementary 12mer dsDNA (dsDNA)
# DNA 1: GCAAACGTTTGC
# DNA 2: GCAAACGTTTGC
# Target: D4 (vaccinia virus uracil-DNA glycosylase, tfD4) (Vaccinia virus, UniProt P04303 1-218)
# Assay: X-ray crystallography (2.89 A); undamaged DNA without uracil; glycerol in active sites; no A20
# Conditions: protein: recombinant; tags: His6 tag cleaved; three vector-encoded residues GSH remain at N-terminus; chain copies: 2; blunt; palindromic, two copies of the same strand
binder,measurement,value
B1,binding result,binds
